Measured values as given in publication PMC11524007.
Each block holds one substance with its values, some of them ahead of it.

Tests used:
[1] = molecular target: HIF1β (human (endogenous in LS174T and in patient renal tissue)) (UniProt P27540); assay: FRET or BRET; two-site aiFRET read by frequency-domain FLIM on tissue microarray cores (normal renal tissue B7, ccRCC cores A1 and A2); median Ef over 10-20 hand-picked regions of interest; donor ATTO488 on HIF1β or PD-1, acceptor Alexa594 (TSA) on HIF2α or PD-L1; Ef below 4% regarded as non-interactive
[2] = molecular target: HIF1β (human (endogenous in LS174T and in patient renal tissue)) (UniProt P27540); assay: FRET or BRET; two-site amplified FRET (aFRET) read by frequency-domain FLIM on PFA-fixed, permeabilised LS174T cells under hypoxia (1% O2, 48 h); donor ATTO488 on anti-HIF-1β, acceptor Alexa594 (TSA) on anti-HIF-2α; Ef below 4% regarded as non-interactive
[3] = molecular target: HIF1β (human (endogenous in LS174T and in patient renal tissue)) (UniProt P27540); assay: FRET or BRET; FuncOmap: Ef computed for each coincidence region of the two-site aFRET/FLIM images, HIF1β/HIF2α in ccRCC core B5; Otsu thresholding; Ef below 4% regarded as non-interactive
[4] = molecular target: HIF1β (human (endogenous in LS174T and in patient renal tissue)) (UniProt P27540); assay: FRET or BRET; FuncOmap: Ef computed for each coincidence region of the two-site aiFRET/FLIM images of tissue microarray cores (HIF1β/HIF2α: B7, A5; PD-1/PD-L1: B7, B5, A5); Otsu thresholding; Ef below 4% regarded as non-interactive
[5] = molecular target: PD-1 (human (endogenous in patient renal tissue)) (UniProt Q15116); assay: FRET or BRET; two-site aiFRET read by frequency-domain FLIM on tissue microarray cores (normal renal tissue B7, ccRCC cores A1 and A2); median Ef over 10-20 hand-picked regions of interest; donor ATTO488 on HIF1β or PD-1, acceptor Alexa594 (TSA) on HIF2α or PD-L1; Ef below 4% regarded as non-interactive
[6] = molecular target: PD-1 (human (endogenous in patient renal tissue)) (UniProt Q15116); assay: FRET or BRET; FuncOmap: Ef computed for each coincidence region of the two-site aiFRET/FLIM images of tissue microarray cores (HIF1β/HIF2α: B7, A5; PD-1/PD-L1: B7, B5, A5); Otsu thresholding; Ef below 4% regarded as non-interactive

Chain of PD-L1 (Q9NZQ7 19-290): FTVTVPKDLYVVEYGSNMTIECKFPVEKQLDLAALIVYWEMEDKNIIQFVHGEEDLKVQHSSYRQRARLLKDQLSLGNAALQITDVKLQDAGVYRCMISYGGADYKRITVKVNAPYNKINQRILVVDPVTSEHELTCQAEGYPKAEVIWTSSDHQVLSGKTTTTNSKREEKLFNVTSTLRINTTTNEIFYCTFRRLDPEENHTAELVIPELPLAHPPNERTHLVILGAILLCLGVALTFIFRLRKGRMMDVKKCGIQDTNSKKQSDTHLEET
Chain of PD-1 (human (endogenous in patient renal tissue)) (Q15116 25-288): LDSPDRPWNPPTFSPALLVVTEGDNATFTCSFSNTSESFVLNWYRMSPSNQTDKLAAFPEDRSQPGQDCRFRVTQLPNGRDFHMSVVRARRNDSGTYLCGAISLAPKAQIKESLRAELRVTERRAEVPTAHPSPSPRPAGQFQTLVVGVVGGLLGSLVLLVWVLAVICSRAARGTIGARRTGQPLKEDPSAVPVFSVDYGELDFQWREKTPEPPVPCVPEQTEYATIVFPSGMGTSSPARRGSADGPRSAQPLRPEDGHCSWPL
Chain of HIF1β (human (endogenous in LS174T and in patient renal tissue)) (P27540 whole entry): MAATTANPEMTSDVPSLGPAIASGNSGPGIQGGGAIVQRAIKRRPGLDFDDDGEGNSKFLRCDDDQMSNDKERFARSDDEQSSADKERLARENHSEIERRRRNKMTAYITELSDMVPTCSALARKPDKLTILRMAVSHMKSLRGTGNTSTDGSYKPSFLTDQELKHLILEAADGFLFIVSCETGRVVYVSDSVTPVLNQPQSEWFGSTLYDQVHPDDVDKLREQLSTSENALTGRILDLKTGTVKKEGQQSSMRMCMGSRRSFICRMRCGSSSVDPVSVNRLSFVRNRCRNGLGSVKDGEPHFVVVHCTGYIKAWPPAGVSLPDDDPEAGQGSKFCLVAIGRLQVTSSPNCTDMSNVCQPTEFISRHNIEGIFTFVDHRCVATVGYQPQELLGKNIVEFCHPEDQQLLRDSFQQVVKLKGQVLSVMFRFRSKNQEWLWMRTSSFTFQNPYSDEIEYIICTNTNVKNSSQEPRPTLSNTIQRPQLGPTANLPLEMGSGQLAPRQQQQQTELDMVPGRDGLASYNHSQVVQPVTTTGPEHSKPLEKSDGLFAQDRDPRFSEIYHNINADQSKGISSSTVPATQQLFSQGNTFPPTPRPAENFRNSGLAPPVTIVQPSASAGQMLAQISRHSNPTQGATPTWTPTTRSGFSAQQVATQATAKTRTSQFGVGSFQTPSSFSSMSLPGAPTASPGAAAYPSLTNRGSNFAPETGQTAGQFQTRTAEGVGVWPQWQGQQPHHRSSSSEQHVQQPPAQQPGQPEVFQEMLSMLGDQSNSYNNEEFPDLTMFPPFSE

median Ef, ccRCC core A1 [1]: 13.6%
median Ef, ccRCC core A2 [1]: 9.3%
median Ef, normal tissue [1]: 6.7%
median FRET efficiency (hypoxia) [2]: 7.75%
Substance: HIF2α (from UniProt Q99814 1-870) (natural protein)
Ef, core B5, region 61 [3]: 0%
Ef, core B5, region 80 [3]: 0%
Ef, core B5, region 103 [3]: 0%
Ef, core B5, region 140 [3]: 0%
Ef, core B5, region 162 [3]: 0%
Ef, core B5, region 167 [3]: 0%
Ef, core B5, region 174 [3]: 0%
Ef, core B5, region 198 [3]: 0%
Ef, core B5, region 199 [3]: 0%
Ef, core B5, region 220 [3]: 0%
Ef, core B5, region 230 [3]: 0%
Ef, core B5, region 242 [3]: 0%
Ef, core B5, region 246 [3]: 0%
Ef, core B5, region 277 [3]: 0%
Ef, core B5, region 318 [3]: 0%
Ef, core B5, region 431 [3]: 0%
Ef, core B5, region 452 [3]: 0%
Ef, core B5, region 585 [3]: 0%
Ef, core B5, region 586 [3]: 0%
Ef, core B5, region 592 [3]: 0%
Ef, core B5, region 600 [3]: 0%
Ef, core B5, region 601 [3]: 0%
Ef, core B5, region 632 [3]: 0%
Ef, core B5, region 659 [3]: 0%
Ef, core B5, region 669 [3]: 0%
Ef, core A5, region 12 [4]: 12.2%
Ef, core A5, region 78 [4]: 13.5%
Ef, core A5, region 83 [4]: 12.7%
Ef, core A5, region 131 [4]: 13.5%
Ef, core A5, region 168 [4]: 12.2%
Ef, core A5, region 187 [4]: 12.2%
Ef, core A5, region 189 [4]: 16%
Ef, core A5, region 235 [4]: 15.4%
Ef, core A5, region 276 [4]: 12.2%
Ef, core A5, region 294 [4]: 13.5%
Ef, core A5, region 383 [4]: 16%
Ef, core A5, region 400 [4]: 12.2%
Ef, core A5, region 531 [4]: 13.5%
Ef, core A5, region 619 [4]: 13.5%
Ef, core A5, region 679 [4]: 12.2%
Ef, core A5, region 733 [4]: 11.4%
Ef, core A5, region 817 [4]: 13.5%
Ef, core A5, region 822 [4]: 12.2%
Ef, core A5, region 826 [4]: 12.2%
Ef, core A5, region 829 [4]: 16%
Ef, core A5, region 1273 [4]: 12.2%
Ef, core A5, region 1299 [4]: 16%
Ef, core A5, region 1302 [4]: 19.8%
Ef, core A5, region 1307 [4]: 21.1%
Ef, core A5, region 1308 [4]: 14.8%
Ef, core B7, region 64 [4]: 0%
Ef, core B7, region 231 [4]: 0%
Ef, core B7, region 402 [4]: 0%
Ef, core B7, region 632 [4]: 0%
Ef, core B7, region 633 [4]: 0%
Ef, core B7, region 634 [4]: 0%
Ef, core B7, region 635 [4]: 0%
Ef, core B7, region 636 [4]: 0%
Ef, core B7, region 637 [4]: 0%
Ef, core B7, region 638 [4]: 0%
Ef, core B7, region 639 [4]: 0%
Ef, core B7, region 640 [4]: 0%
Ef, core B7, region 641 [4]: 0%
Ef, core B7, region 657 [4]: 0%
Ef, core B7, region 662 [4]: 7.66%
Ef, core B7, region 664 [4]: 0%
Ef, core B7, region 672 [4]: 4.95%
Ef, core B7, region 685 [4]: 0%
Ef, core B7, region 686 [4]: 0%
Ef, core B7, region 712 [4]: 0%
Ef, core B7, region 719 [4]: 0%
Ef, core B7, region 729 [4]: 0%
Ef, core B7, region 754 [4]: 0%
Ef, core B7, region 943 [4]: 0%
Ef, core B7, region 950 [4]: 0%

median Ef, normal tissue [5]: 5.24%
Substance: PD-L1 (from UniProt Q9NZQ7 19-290) (ligand)
Ef, core A5, region 57 [6]: 0%
Ef, core A5, region 63 [6]: 10.9%
Ef, core A5, region 92 [6]: 8.6%
Ef, core A5, region 110 [6]: 8.34%
Ef, core A5, region 186 [6]: 8.16%
Ef, core A5, region 421 [6]: 5.03%
Ef, core A5, region 448 [6]: 7.7%
Ef, core A5, region 482 [6]: 9.31%
Ef, core A5, region 505 [6]: 7.72%
Ef, core A5, region 564 [6]: 8.82%
Ef, core A5, region 639 [6]: 11.2%
Ef, core A5, region 653 [6]: 12.1%
Ef, core A5, region 812 [6]: 16.7%
Ef, core A5, region 823 [6]: 9.22%
Ef, core A5, region 929 [6]: 8.25%
Ef, core A5, region 949 [6]: 6.49%
Ef, core A5, region 1053 [6]: 12.9%
Ef, core A5, region 1064 [6]: 10.6%
Ef, core A5, region 1113 [6]: 4.28%
Ef, core A5, region 1241 [6]: 6.86%
Ef, core A5, region 1250 [6]: 10.1%
Ef, core A5, region 1255 [6]: 8.24%
Ef, core A5, region 1274 [6]: 8.32%
Ef, core A5, region 1360 [6]: 6.13%
Ef, core A5, region 1405 [6]: 12.4%
Ef, core B5, region 81 [6]: 21.8%
Ef, core B5, region 107 [6]: 30.6%
Ef, core B5, region 176 [6]: 28.4%
Ef, core B5, region 249 [6]: 23.6%
Ef, core B5, region 261 [6]: 15.7%
Ef, core B5, region 373 [6]: 24%
Ef, core B5, region 546 [6]: 24.8%
Ef, core B5, region 551 [6]: 16.4%
Ef, core B5, region 586 [6]: 17%
Ef, core B5, region 622 [6]: 23.1%
Ef, core B5, region 774 [6]: 25.1%
Ef, core B5, region 841 [6]: 29.4%
Ef, core B5, region 930 [6]: 28.3%
Ef, core B5, region 1104 [6]: 21.1%
Ef, core B5, region 1155 [6]: 20.4%
Ef, core B5, region 1187 [6]: 0%
Ef, core B5, region 1246 [6]: 15.8%
Ef, core B5, region 1288 [6]: 26.3%
Ef, core B5, region 1500 [6]: 28.5%
Ef, core B5, region 1612 [6]: 13.9%
Ef, core B5, region 1772 [6]: 20.8%
Ef, core B5, region 1811 [6]: 24%
Ef, core B5, region 1878 [6]: 18.1%
Ef, core B5, region 2043 [6]: 20.4%
Ef, core B5, region 2232 [6]: 28.3%
Ef, core B7, region 24 [6]: 21.5%
Ef, core B7, region 67 [6]: 14.2%
Ef, core B7, region 102 [6]: 16.1%
Ef, core B7, region 197 [6]: 21.2%
Ef, core B7, region 233 [6]: 48.4%
Ef, core B7, region 299 [6]: 16.3%
Ef, core B7, region 356 [6]: 20%
Ef, core B7, region 384 [6]: 16.5%
Ef, core B7, region 442 [6]: 19.1%
Ef, core B7, region 548 [6]: 23.4%
Ef, core B7, region 561 [6]: 12.8%
Ef, core B7, region 648 [6]: 26.6%
Ef, core B7, region 772 [6]: 14.2%
Ef, core B7, region 905 [6]: 12%
Ef, core B7, region 984 [6]: 22.3%
Ef, core B7, region 1009 [6]: 28.9%
Ef, core B7, region 1273 [6]: 23.4%
Ef, core B7, region 1454 [6]: 29.9%
Ef, core B7, region 1657 [6]: 18.1%
Ef, core B7, region 1711 [6]: 25.7%
Ef, core B7, region 1750 [6]: 18.1%
Ef, core B7, region 1861 [6]: 27.4%
Ef, core B7, region 1919 [6]: 14.7%
Ef, core B7, region 1932 [6]: 26.4%
Ef, core B7, region 1973 [6]: 28.4%
